Experimental data reported in article doi:10.1101/2023.11.02.565342.

T1: TOPOVIBLΔC25 (monomer) (Mus musculus, UniProt J3QMY9 1-554)
T1 sequence: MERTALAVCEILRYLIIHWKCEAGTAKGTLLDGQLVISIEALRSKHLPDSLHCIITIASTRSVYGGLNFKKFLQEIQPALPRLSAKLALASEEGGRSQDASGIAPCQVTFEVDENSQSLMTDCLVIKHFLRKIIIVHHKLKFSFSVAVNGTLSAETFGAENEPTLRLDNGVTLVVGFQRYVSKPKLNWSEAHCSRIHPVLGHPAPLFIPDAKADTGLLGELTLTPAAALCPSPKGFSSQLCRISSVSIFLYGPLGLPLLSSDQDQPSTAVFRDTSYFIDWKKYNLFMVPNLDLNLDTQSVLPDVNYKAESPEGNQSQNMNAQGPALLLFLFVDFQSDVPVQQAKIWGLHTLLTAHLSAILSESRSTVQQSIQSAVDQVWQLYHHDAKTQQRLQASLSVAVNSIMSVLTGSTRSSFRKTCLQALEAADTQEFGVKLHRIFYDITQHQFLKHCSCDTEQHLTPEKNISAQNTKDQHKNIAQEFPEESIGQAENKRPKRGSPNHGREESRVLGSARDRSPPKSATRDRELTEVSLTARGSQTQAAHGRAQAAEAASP

T2: TOPOVIBLΔC25 K281E K282E (Mus musculus, UniProt J3QMY9 1-554, K281E;K282E)
T2 sequence: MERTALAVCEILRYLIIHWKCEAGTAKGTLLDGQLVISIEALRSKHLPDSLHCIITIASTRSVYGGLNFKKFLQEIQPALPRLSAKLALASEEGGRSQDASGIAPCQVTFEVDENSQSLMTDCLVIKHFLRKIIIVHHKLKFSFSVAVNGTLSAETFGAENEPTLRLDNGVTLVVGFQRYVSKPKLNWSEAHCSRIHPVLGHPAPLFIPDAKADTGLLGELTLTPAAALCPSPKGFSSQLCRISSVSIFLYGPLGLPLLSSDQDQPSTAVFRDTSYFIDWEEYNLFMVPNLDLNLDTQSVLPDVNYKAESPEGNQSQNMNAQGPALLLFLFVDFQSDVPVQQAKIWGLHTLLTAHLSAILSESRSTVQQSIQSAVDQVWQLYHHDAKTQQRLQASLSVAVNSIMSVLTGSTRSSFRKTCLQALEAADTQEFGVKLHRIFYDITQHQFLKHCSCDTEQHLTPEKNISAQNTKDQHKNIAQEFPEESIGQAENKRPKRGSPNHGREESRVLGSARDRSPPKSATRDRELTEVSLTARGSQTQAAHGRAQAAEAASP


Tests used:
[1] = target: HSP70 (Spodoptera frugiperda (endogenous in Sf9)); assay: native MS
TOPOVIBLΔC25 (monomer) [2] = target: T1, TOPOVIBLΔC25 (monomer); assay: fluorescence anisotropy
TOPOVIBLΔC25 K281E K282E = target: T2, TOPOVIBLΔC25 K281E K282E; assay: fluorescence anisotropy
TOPOVIBLΔC25 (monomer) [3] = target: T1, TOPOVIBLΔC25 (monomer); assay: competition
TOPOVIBLΔC25 (monomer) [4] = target: T1, TOPOVIBLΔC25 (monomer); assay: fluorescence anisotropy; remark: listed apart in the source

Molecule	Kd (TOPOVIBLΔC25 (monomer) [2])	further results
HSP70 (natural protein)	–	stoichiometry N [1]: 2
2B70 dsDNA (dsDNA) DNA 1: AGACAAGAGATGGCCCTTTCCAGAAGCTACCACCATCATGTCTTCTACCACTGTGCACTAATATAGTGTG DNA 2: CACACTATATTAGTGCACAGTGGTAGAAGACATGATGGTGGTAGCTTCTGGAAAGGGCCATCTCTTGTCT	1500 nM	–
2B60 dsDNA (dsDNA) DNA 1: AGAGATGGCCCTTTCCAGAAGCTACCACCATCATGTCTTCTACCACTGTGCACTAATATA DNA 2: TATATTAGTGCACAGTGGTAGAAGACATGATGGTGGTAGCTTCTGGAAAGGGCCATCTCT	900 nM	–
2B20 dsDNA (dsDNA) DNA 1: GCTACCACCATCATGTCTTC DNA 2: GAAGACATGATGGTGGTAGC	1610 nM	–
2B39 dsDNA (dsDNA) DNA 1: CTTTCCAGAAGCTACCACCATCATGTCTTCTACCACTGT DNA 2: ACAGTGGTAGAAGACATGATGGTGGTAGCTTCTGGAAAG	650 nM	binding signal (TOPOVIBLΔC25 K281E K282E): 3 mutant/wild type Kd ratio
ACAGTGGTAGAAGACATGATGGTGGTAGCTTCTGGAAAG (ssDNA) [ss2B39 (unlabeled competitor)]	–	binding result (TOPOVIBLΔC25 (monomer) [3]): binds
CTTTCCAGAAGCTACCACCATCATGTCTTCTACCACTGT (ssDNA) [ss2B39 (labeled)]	310 nM	–
U40 dsDNA (dsDNA) DNA 1: CTATTGAAAAAGGAAGAGTATGAGTATTCAACATTTCCGC DNA 2: GCGGAAATGTTGAATACTCATACTCTTCCTTTTTCAATAG	–	binding result (TOPOVIBLΔC25 (monomer) [4]): binds
